B1: Compound 32 (Ac-CRLPWNLQRIGLPC-NH2) (peptide)
peptide: Ac-CRLPWNLQRIGLPC-NH2
modifications: disulfide 1-14
SMILES: CC[C@H](C)[C@@H]1NC(=O)[C@H](CCCNC(=N)N)NC(=O)[C@H](CCC(N)=O)NC(=O)[C@H](CC(C)C)NC(=O)[C@H](CC(N)=O)NC(=O)[C@H](Cc2c[nH]c3ccccc23)NC(=O)[C@@H]2CCCN2C(=O)[C@H](CC(C)C)NC(=O)[C@H](CCCNC(=N)N)NC(=O)[C@@H](NC(C)=O)CSSC[C@@H](C(N)=O)NC(=O)[C@@H]2CCCN2C(=O)[C@H](CC(C)C)NC(=O)CNC1=O
B2: Compound 69 (Ac-CRLPWNLQRIGAPC-NH2) (peptide)
peptide: Ac-CRLPWNLQRIGAPC-NH2
modifications: disulfide 1-14
SMILES: CC[C@H](C)[C@@H]1NC(=O)[C@H](CCCNC(=N)N)NC(=O)[C@H](CCC(N)=O)NC(=O)[C@H](CC(C)C)NC(=O)[C@H](CC(N)=O)NC(=O)[C@H](Cc2c[nH]c3ccccc23)NC(=O)[C@@H]2CCCN2C(=O)[C@H](CC(C)C)NC(=O)[C@H](CCCNC(=N)N)NC(=O)[C@@H](NC(C)=O)CSSC[C@@H](C(N)=O)NC(=O)[C@@H]2CCCN2C(=O)[C@H](C)NC(=O)CNC1=O
B3: Compound 71 (Ac-CRLPWNLQRAGLPC-NH2) (peptide)
peptide: Ac-CRLPWNLQRAGLPC-NH2
modifications: disulfide 1-14
SMILES: CC(=O)N[C@H]1CSSC[C@@H](C(N)=O)NC(=O)[C@@H]2CCCN2C(=O)[C@H](CC(C)C)NC(=O)CNC(=O)[C@H](C)NC(=O)[C@H](CCCNC(=N)N)NC(=O)[C@H](CCC(N)=O)NC(=O)[C@H](CC(C)C)NC(=O)[C@H](CC(N)=O)NC(=O)[C@H](Cc2c[nH]c3ccccc23)NC(=O)[C@@H]2CCCN2C(=O)[C@H](CC(C)C)NC(=O)[C@H](CCCNC(=N)N)NC1=O
B4: Compound 75 (Ac-CRLPWALQRIGLPC-NH2) (peptide)
peptide: Ac-CRLPWALQRIGLPC-NH2
modifications: disulfide 1-14
SMILES: CC[C@H](C)[C@@H]1NC(=O)[C@H](CCCNC(=N)N)NC(=O)[C@H](CCC(N)=O)NC(=O)[C@H](CC(C)C)NC(=O)[C@H](C)NC(=O)[C@H](Cc2c[nH]c3ccccc23)NC(=O)[C@@H]2CCCN2C(=O)[C@H](CC(C)C)NC(=O)[C@H](CCCNC(=N)N)NC(=O)[C@@H](NC(C)=O)CSSC[C@@H](C(N)=O)NC(=O)[C@@H]2CCCN2C(=O)[C@H](CC(C)C)NC(=O)CNC1=O
B5: Compound 68 (Ac-CRLPWNLQRIGLAC-NH2) (peptide)
peptide: Ac-CRLPWNLQRIGLAC-NH2
modifications: disulfide 1-14
SMILES: CC[C@H](C)[C@@H]1NC(=O)[C@H](CCCNC(=N)N)NC(=O)[C@H](CCC(N)=O)NC(=O)[C@H](CC(C)C)NC(=O)[C@H](CC(N)=O)NC(=O)[C@H](Cc2c[nH]c3ccccc23)NC(=O)[C@@H]2CCCN2C(=O)[C@H](CC(C)C)NC(=O)[C@H](CCCNC(=N)N)NC(=O)[C@@H](NC(C)=O)CSSC[C@@H](C(N)=O)NC(=O)[C@H](C)NC(=O)[C@H](CC(C)C)NC(=O)CNC1=O
B6: Compound 70 (Ac-CRLPWNLQRIALPC-NH2) (peptide)
peptide: Ac-CRLPWNLQRIALPC-NH2
modifications: disulfide 1-14
SMILES: CC[C@H](C)[C@@H]1NC(=O)[C@H](CCCNC(=N)N)NC(=O)[C@H](CCC(N)=O)NC(=O)[C@H](CC(C)C)NC(=O)[C@H](CC(N)=O)NC(=O)[C@H](Cc2c[nH]c3ccccc23)NC(=O)[C@@H]2CCCN2C(=O)[C@H](CC(C)C)NC(=O)[C@H](CCCNC(=N)N)NC(=O)[C@@H](NC(C)=O)CSSC[C@@H](C(N)=O)NC(=O)[C@@H]2CCCN2C(=O)[C@H](CC(C)C)NC(=O)[C@H](C)NC1=O
B7: Compound 74 (Ac-CRLPWNAQRIGLPC-NH2) (peptide)
peptide: Ac-CRLPWNAQRIGLPC-NH2
modifications: disulfide 1-14
SMILES: CC[C@H](C)[C@@H]1NC(=O)[C@H](CCCNC(=N)N)NC(=O)[C@H](CCC(N)=O)NC(=O)[C@H](C)NC(=O)[C@H](CC(N)=O)NC(=O)[C@H](Cc2c[nH]c3ccccc23)NC(=O)[C@@H]2CCCN2C(=O)[C@H](CC(C)C)NC(=O)[C@H](CCCNC(=N)N)NC(=O)[C@@H](NC(C)=O)CSSC[C@@H](C(N)=O)NC(=O)[C@@H]2CCCN2C(=O)[C@H](CC(C)C)NC(=O)CNC1=O
B8: Compound 72 (Ac-CRLPWNLQAIGLPC-NH2) (peptide)
peptide: Ac-CRLPWNLQAIGLPC-NH2
modifications: disulfide 1-14
SMILES: CC[C@H](C)[C@@H]1NC(=O)[C@H](C)NC(=O)[C@H](CCC(N)=O)NC(=O)[C@H](CC(C)C)NC(=O)[C@H](CC(N)=O)NC(=O)[C@H](Cc2c[nH]c3ccccc23)NC(=O)[C@@H]2CCCN2C(=O)[C@H](CC(C)C)NC(=O)[C@H](CCCNC(=N)N)NC(=O)[C@@H](NC(C)=O)CSSC[C@@H](C(N)=O)NC(=O)[C@@H]2CCCN2C(=O)[C@H](CC(C)C)NC(=O)CNC1=O
B9: Compound 67 (Ac-CRLPWNLKRIGLPC-NH2) (peptide)
peptide: Ac-CRLPWNLKRIGLPC-NH2
modifications: disulfide 1-14
SMILES: CC[C@H](C)[C@@H]1NC(=O)[C@H](CCCNC(=N)N)NC(=O)[C@H](CCCCN)NC(=O)[C@H](CC(C)C)NC(=O)[C@H](CC(N)=O)NC(=O)[C@H](Cc2c[nH]c3ccccc23)NC(=O)[C@@H]2CCCN2C(=O)[C@H](CC(C)C)NC(=O)[C@H](CCCNC(=N)N)NC(=O)[C@@H](NC(C)=O)CSSC[C@@H](C(N)=O)NC(=O)[C@@H]2CCCN2C(=O)[C@H](CC(C)C)NC(=O)CNC1=O
B10: Compound 73 (Ac-CRLPWNLARIGLPC-NH2) (peptide)
peptide: Ac-CRLPWNLARIGLPC-NH2
modifications: disulfide 1-14
SMILES: CC[C@H](C)[C@@H]1NC(=O)[C@H](CCCNC(=N)N)NC(=O)[C@H](C)NC(=O)[C@H](CC(C)C)NC(=O)[C@H](CC(N)=O)NC(=O)[C@H](Cc2c[nH]c3ccccc23)NC(=O)[C@@H]2CCCN2C(=O)[C@H](CC(C)C)NC(=O)[C@H](CCCNC(=N)N)NC(=O)[C@@H](NC(C)=O)CSSC[C@@H](C(N)=O)NC(=O)[C@@H]2CCCN2C(=O)[C@H](CC(C)C)NC(=O)CNC1=O
B11: Compound 76 (Ac-CRLPANLQRIGLPC-NH2) (peptide)
peptide: Ac-CRLPANLQRIGLPC-NH2
modifications: disulfide 1-14
SMILES: CC[C@H](C)[C@@H]1NC(=O)[C@H](CCCNC(=N)N)NC(=O)[C@H](CCC(N)=O)NC(=O)[C@H](CC(C)C)NC(=O)[C@H](CC(N)=O)NC(=O)[C@H](C)NC(=O)[C@@H]2CCCN2C(=O)[C@H](CC(C)C)NC(=O)[C@H](CCCNC(=N)N)NC(=O)[C@@H](NC(C)=O)CSSC[C@@H](C(N)=O)NC(=O)[C@@H]2CCCN2C(=O)[C@H](CC(C)C)NC(=O)CNC1=O

Bridge positions count the residues as written; N and C are the ends.

In one experiment the target is T1, His-tagged, full-length PCSK9 (human, UniProt Q8NBP7 31-692).
T1 construct: secreted PCSK9 is autocatalytically cleaved into prodomain and catalytic domain + CRD (from S153), which stay associated; also called His-PCSK9; proprotein convertase subtilisin/kexin type 9; not shown: His tag
T1 sequence (Q8NBP7 31-692 limits assumed): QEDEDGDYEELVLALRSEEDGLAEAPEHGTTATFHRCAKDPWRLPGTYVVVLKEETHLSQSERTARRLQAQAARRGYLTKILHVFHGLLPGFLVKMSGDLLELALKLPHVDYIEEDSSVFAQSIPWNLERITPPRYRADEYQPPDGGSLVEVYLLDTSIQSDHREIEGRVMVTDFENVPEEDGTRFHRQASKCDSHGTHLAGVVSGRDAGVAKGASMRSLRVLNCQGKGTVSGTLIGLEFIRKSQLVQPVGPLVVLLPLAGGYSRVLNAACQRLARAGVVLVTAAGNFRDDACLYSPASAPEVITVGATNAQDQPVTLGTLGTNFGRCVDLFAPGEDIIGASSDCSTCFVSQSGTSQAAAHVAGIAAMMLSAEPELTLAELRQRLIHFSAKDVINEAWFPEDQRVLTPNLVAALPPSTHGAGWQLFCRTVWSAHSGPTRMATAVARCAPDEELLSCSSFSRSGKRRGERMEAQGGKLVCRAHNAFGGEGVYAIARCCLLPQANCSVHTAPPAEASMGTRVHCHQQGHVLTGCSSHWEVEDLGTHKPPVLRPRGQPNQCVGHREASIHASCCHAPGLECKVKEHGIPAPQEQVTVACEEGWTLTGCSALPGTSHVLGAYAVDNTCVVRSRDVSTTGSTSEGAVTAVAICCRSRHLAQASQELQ
Nature of the experiment: TR-FRET competition (PCSK9/EGF(A) assay); competitor EGF(A)-Fc.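 Further: proximity signal from anti-His APC on PCSK9 paired with anti-Fc europium on the Fc ligand, read as normalized TR-FRET ratio across compound dilutions.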 For orientation: TR-FRET usually uses a lanthanide donor and a delayed reading to cut background.
Regarding B1, the IC50 is over 50 µM.

Molecule B2 showed a concentration for half-maximal inhibition (IC50) of over 50 µM.

B3 showed an IC50 of over 50 µM.

B4 gave an IC50 of over 50 µM.

Molecule B5 had an IC50 of over 50 µM.

In turn, B6 registered an IC50 of over 50 µM.

As for B7, the IC50 was over 50 µM.

In turn, B8 had an IC50 of over 50 µM.

For the molecule B9, the IC50 is over 50 µM.

The molecule B10 gave an IC50 of over 50 µM.

Take B11: the IC50 is over 50 µM.

The target of a further experiment is T2, His-tagged PCSK9Δhelix (human, UniProt Q8NBP7 31-152; Q8NBP7 168-692).
T2 construct: Human PCSK9 M1-Q692 with an engineered TEV site, cut by TEV protease; new N-terminus of the catalytic domain is S-A168; also called His-PCSK9Δhelix; not shown: His tag
T2 sequence (Q8NBP7 31-152, stated change not applied, chain 1 of 2): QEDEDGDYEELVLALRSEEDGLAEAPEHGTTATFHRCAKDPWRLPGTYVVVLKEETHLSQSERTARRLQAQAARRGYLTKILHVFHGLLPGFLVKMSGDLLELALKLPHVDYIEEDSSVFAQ
T2 sequence (Q8NBP7 other isoform, or with tags, fused parts or gaps mutant, chain 2 of 2): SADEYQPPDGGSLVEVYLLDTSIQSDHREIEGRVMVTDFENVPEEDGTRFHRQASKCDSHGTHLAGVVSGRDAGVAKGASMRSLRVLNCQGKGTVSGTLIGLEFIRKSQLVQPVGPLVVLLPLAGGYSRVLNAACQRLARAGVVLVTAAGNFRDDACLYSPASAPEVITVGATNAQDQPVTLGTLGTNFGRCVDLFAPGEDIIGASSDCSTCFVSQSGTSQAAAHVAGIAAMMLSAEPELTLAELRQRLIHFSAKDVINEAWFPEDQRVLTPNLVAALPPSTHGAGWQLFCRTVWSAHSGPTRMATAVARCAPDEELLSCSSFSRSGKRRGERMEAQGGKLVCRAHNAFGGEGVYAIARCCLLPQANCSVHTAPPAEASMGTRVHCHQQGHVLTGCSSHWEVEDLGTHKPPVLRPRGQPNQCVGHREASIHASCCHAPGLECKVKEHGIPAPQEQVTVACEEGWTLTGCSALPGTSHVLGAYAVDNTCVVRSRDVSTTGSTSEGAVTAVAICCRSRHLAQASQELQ
Nature of the experiment: TR-FRET competition (PCSK9Δhelix/Ab20 assay); competitor Ab20.
For the molecule B1, the IC50 stood at 0.97 µM.

B2 returned an IC50 of 6.64 µM.

B3 registered an IC50 of 49.5 µM.

For B4, the IC50 worked out at 49.5 µM.

In the case of B5, the IC50 was 0.939 µM.

Molecule B6 showed an IC50 of 7.26 µM.

Take B7: the IC50 was found to be 49.5 µM.

Molecule B8 displayed an IC50 of 39.6 µM.

B9 had an IC50 of 0.699 µM.

Molecule B10 showed an IC50 of 0.915 µM.

The molecule B11 showed an IC50 of 49.5 µM.

Broadly, the IC50 is the concentration that inhibits the measured activity by half. Low readings indicate inhibition by little substance, high ones a need for much substance.

(Values after patent publication US20200283478A1 (Genentech, published 2020).)
